# In the RNAGym collection of RNA variant scans (doi:10.1093/nar/gkz1192):
# B1: CPEB3 Ribozyme (parent)
# chain: UAACAGGGGGCCACAGCAGAAGCGUUCACGUCGCAGCCCCUGUCAGAUUCUGGUGAAUCUGCGAAUUCUGCUGUAUAUCUC
# Variants of: B1
# Assay: self-cleavage, relative activity (ratio to wild type); higher = more cleavage; in vitro, sequencing
# Procedure, shortened: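 For each CPEB3 ribozyme variant, relative activity is its cleaved/total read fraction divided by the unmutated ribozyme's. Barcoded error-prone PCR libraries were transcribed by T7 RNA polymerase (5 hours, 37°C) and held in DNase I for 15 min before an EDTA stop, with cleavage occurring throughout. Template-switching reverse transcription and Illumina sequencing were used to read the RNAs. A 5-read minimum applied, and results are the mean of three batches.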
row,Variant,self-cleavage
1,U26G G73A,0.89
2,C27A U58G,0.25
3,C27G A47U,0.05
4,C27A A45G,0.22
5,A28C U76C,0.53
6,A28C U76A,0.61
7,A28C C81U,0.67
8,A28C U58G,0.2
9,A28C U58C,0.27
10,A28C C79U,0.63
11,C27A A28G,0.27
12,C27U A64U,0.26
13,C27U A64G,0.24
14,A28G G63U,0.8
15,A28G G63A,0.38
16,C27U A47G,0.28
17,C27U A47U,0.44
18,C27A A35G,0.52
19,A28G C38A,0.29
20,A28G C38G,0.25
21,A28G C38U,0.54
22,A28C A64G,0.52
23,A28G C50U,0.48
24,A28G C50A,0.48

row,Variant,self-cleavage
1,A28G C50G,0.29
2,C27G U76C,0.22
3,A28C C32A,0.24
4,A28C G55U,0.21
5,C27G C50U,0.23
6,A28G C39A,0.06
7,A28G C39U,0.57
8,C27A U67C,0.14
9,C27A U67A,0.18
10,A28G U54G,0.41
11,A28G U54A,0.6
12,A28G U54C,0.58
13,C27G U69C,0.24
14,C27G U69G,0.14
15,A28C U51C,0.51
16,A28C U51A,0.53
17,A28C U51G,0.38
18,A28C U78C,0.46
19,A28C U78A,0.64
20,U26G U58C,0.36
21,A28G U67C,0.17
22,A28G U67A,0.27
23,A28G U67G,0.17
24,C27G U72C,0.11

row,Variant,self-cleavage
1,C27U U72C,0.24
2,C27U U72A,0.18
3,C27U U31C,0.46
4,A28G U51C,0.62
5,A28G U51A,0.63
6,A28G U51G,0.45
7,C27U C29A,0.15
8,C27U U51A,0.17
9,A28G C71U,0.15
10,A28G C71A,0.14
11,C27A C50U,0.17
12,U26G U41C,0.4
13,U26G U41A,0.28
14,U26G U72C,0.31
15,U26G U72A,0.14
16,A28G A77G,0.72
17,A28G A77U,0.79
18,A28G A77C,0.58
19,A28G G42C,0.18
20,A28G G42U,0.26
21,A28G G42A,0.46
22,A28G U60C,0.25
23,A28G U60A,0.32
24,A28G U60G,0.16

row,Variant,self-cleavage
1,A28C U66C,0.28
2,C27A C37U,0.21
3,C27U U66C,0.15
4,U26G U31A,0.3
5,U26G U31C,0.25
6,A28G U69A,0.29
7,A28G U69G,0.48
8,A28G U69C,0.25
9,C27A U72C,0.19
10,C27A G46U,0.18
11,A28G U43A,0.86
12,A28G U43C,0.35
13,A28G U43G,0.17
14,A28C A47C,0.18
15,C27A U43A,0.39
16,C27A U43C,0.18
17,U26G G53A,0.24
18,A28G C37A,0.21
19,A28G C37U,0.43
20,A28G U72C,0.67
21,A28G U72G,0.56
22,A28G U72A,0.3
23,A28G U48G,0.43
24,A28G U48A,0.26

row,Variant,self-cleavage
1,A28G U48C,0.29
2,C27U A35G,0.41
3,C27U A35U,0.32
4,C27A A65G,0.25
5,A28G G53A,0.78
6,C27A U60C,0.18
7,C27U,0.29
8,C27G,0.28
9,C27A,0.3
10,A28C U80A,0.53
11,C27U U54A,0.34
12,C27U U54C,0.35
13,C27G A56G,0.14
14,C27A C39A,0.2
15,A28C U43A,0.59
16,A28C U43C,0.4
17,C27U U67C,0.16
18,C27A U51C,0.21
19,C27A U51A,0.38
20,A28G G52C,0.42
21,A28G G52A,0.76
22,C27U U49C,0.15
23,C27U G33U,0.34
24,C27G A35U,0.16

row,Variant,self-cleavage
1,C27G C29U,0.29
2,C27U A77U,0.09
3,A28G G33U,0.16
4,A28G G33A,0.22
5,C27U A28G,0.37
6,A28G A47C,0.23
7,A28G A47G,0.52
8,A28G A47U,0.25
9,C27U U43A,0.29
10,C27U U43C,0.21
11,A28G G73C,1.29
12,A28G G73A,1.16
13,A28G G73U,1.26
14,U26G U69C,0.37
15,U26G U69A,0.21
16,A28C C38G,0.19
17,A28C C38U,0.41
18,A28C G73U,0.55
19,A28G G36U,0.15
20,A28G G36A,0.15
21,A28C A75G,0.49
22,A28G A35G,1.18
23,A28G A35C,0.53
24,A28G A35U,0.27

row,Variant,self-cleavage
1,A28C C62U,0.06
2,C27G U41C,0.18
3,C27U C38U,0.32
4,A28C U54C,0.53
5,A28C U54G,0.36
6,A28G C62A,0.23
7,A28G C62U,0.27
8,A28G C62G,0.21
9,A28C A57G,0.45
10,U26G U51G,0.33
11,U26G U51A,0.42
12,C27G A75G,0.3
13,A28C,0.56
14,A28G,0.67
15,A28G U58G,0.46
16,A28G U58A,0.24
17,A28G U58C,0.27
18,C27A C44G,0.07
19,C27A A77U,0.14
20,C27U G63A,0.22
21,C27A U69A,0.08
22,A28C A35U,0.27
23,A28C A35C,0.4
24,A28C A35G,0.98

row,Variant,self-cleavage
1,A28G A45C,0.33
2,A28G A45U,0.31
3,A28G A45G,0.4
4,A28G U76A,0.61
5,U26G C79U,0.4
6,U26G C79A,0.19
7,A28C G70U,0.11
8,A28C G70A,0.27
9,U26G U78A,0.51
10,U26G U78C,0.3
11,A28G G61U,0.5
12,A28G G61A,0.38
13,A28G G61C,0.15
14,A28C A56G,0.3
15,A28C A56U,0.23
16,A28C C71U,0.41
17,A28C C71G,0.08
18,A28G C68A,0.17
19,A28G C68G,0.14
20,A28G C68U,0.48
21,A28G C29U,0.52
22,A28G U74C,1
23,A28G U74A,1.06
24,A28G U74G,1.08

row,Variant,self-cleavage
1,C27U U58C,0.15
2,A28C U60C,0.29
3,A28C U60A,0.4
4,C27U A65G,0.24
5,C27U A65C,0.1
6,C27U A65U,0.14
7,C27A U48C,0.11
8,A28G G55A,0.33
9,A28G G55U,0.68
10,A28G G55C,0.39
11,A28G G46A,0.09
12,A28G G46C,0.08
13,C27U A56U,0.21
14,C27U A56G,0.52
15,C27U U80C,0.58
16,C27U U80A,0.29
17,A28C U49C,0.21
18,A28C U49A,0.26
19,A28C U69G,0.2
20,A28C U69C,0.19
21,A28C U69A,0.17
22,C27A C32U,0.3
23,A28G C32A,0.13
24,A28G C32U,0.24

row,Variant,self-cleavage
1,A28C U41C,0.28
2,A28C U41A,0.2
3,A28C U74C,0.7
4,A28C U74A,0.9
5,U26G U76A,0.32
6,U26G U76C,0.45
7,C27U U78G,0.38
8,C27U U78C,0.44
9,C27U U78A,0.16
10,U26G U60C,0.11
11,C27A U41A,0.07
12,C27A U41C,0.24
13,A28G C34G,0.35
14,A28G C34U,0.32
15,A28G C34A,0.32
16,A28G C40G,0.22
17,A28G C40U,0.48
18,C27U U41G,0.11
19,C27U U41C,0.2
20,C27U U41A,0.2
21,C27A C81U,0.11
22,A28G C44U,0.28
23,A28G C44A,0.12
24,A28G A57U,0.24

row,Variant,self-cleavage
1,A28G A57G,0.51
2,A28G A57C,0.16
3,U26G U54A,0.19
4,C27G U74C,0.41
5,C27A U76C,0.21
6,C27A U76A,0.55
7,U26G U80C,0.51
8,U26G U80A,0.35
9,A28G U66A,0.31
10,A28G U66C,0.26
11,A28G U66G,0.2
12,C27U C37U,0.2
13,C27A A56U,0.09
14,C27G C32U,0.17
15,C27A U74C,0.19
16,A28C U72G,0.4
17,A28C U72C,0.61
18,A28C U72A,0.38
19,C27A C59A,0.11
20,U26G U49A,0.28
21,U26G U49G,0.05
22,A28G U41C,0.6
23,A28G U41G,0.15
24,A28G U41A,0.27

row,Variant,self-cleavage
1,U26G U66C,0.16
2,U26G U66G,0.2
3,A28G A56U,0.34
4,A28G A56C,0.31
5,A28G A56G,0.43
6,A28G C79U,0.88
7,C27U A57G,0.17
8,A28G A64G,0.46
9,A28G A64U,0.24
10,U26G U43C,1.02
11,U26G U43A,0.41
12,C27G U49A,0.28
13,C27A A57G,0.08
14,U26G U74C,0.39
15,U26G U74A,0.41
16,A28C U67C,0.22
17,A28C U67A,0.49
18,A28C U48A,0.37
19,A28C U48C,0.46
20,A28C A45G,0.39
21,C27A U80A,0.17
22,C27A U80C,0.66
23,A28G G70A,0.23
24,C27U U48C,0.18

row,Variant,self-cleavage
1,A28G U31G,0.25
2,A28G U31A,0.33
3,A28G U31C,0.48
4,C27U U76A,0.28
5,C27U U76C,0.19
6,A28G A65C,0.21
7,A28G A65U,0.15
8,A28G A65G,0.33
9,C27A A64U,0.2
10,C27A A64G,0.33
11,A28G C81A,1
12,A28G C81G,0.42
13,A28G C81U,0.75
14,C27U A45C,0.19
15,C27U A45G,0.17
16,A28C G52U,0.64
17,C27G U54C,0.3
18,C27G U80A,0.22
19,A28G A75U,0.73
20,A28G A75G,0.53
21,A28C G61C,0.19
22,A28C G61U,0.2
23,A28C G61A,0.48
24,U26G U48A,0.37

row,Variant,self-cleavage
1,U26G U48C,0.22
2,C27U U60C,0.14
3,A28G U49A,0.31
4,A28G U49C,0.22
5,A28G G30C,0.32
6,A28G G30A,0.2
7,C27U G30A,0.26
8,C27U U74C,0.36
9,C27U U74A,0.5
10,C27G A64G,0.23
11,A28C A65U,0.3
12,A28C A65G,0.24
13,C27A U78C,0.19
14,C27A U54C,0.56
15,A28C G63U,0.41
16,A28G C59U,0.54
17,A28G C59A,0.2
18,A28C A77U,0.22
19,A28C A77G,0.51
20,A28C U31C,0.35
21,A28C U31A,0.55
22,A28C U31G,0.38
